The values that follow come from patent US20230279130A1.

The target in test [1] is full length human CCR8 (hCCR8) (human) (UniProt P51685). Description: flow cytometry, CD4+Foxp3+ gated cells of resting human PBMC, anti-human IgG Fc against Foxp3. On the technique in general: A flow cytometer gives signals particle by particle.
Test [2] has the same target. Briefly: flow cytometry, CD4+Foxp3+ gated cells of human PBMC stimulated with IL-2 (200 U/ml) for 2 days, anti-human IgG Fc against Foxp3.
The target is the same in test [3]. Briefly: flow cytometry, CD4+Foxp3+ gated cells of OKT-3 stimulated human PBMC, anti-human IgG APC against Foxp3 PE.

With Anti RSV (antibody), the percent of CD4+Foxp3+ cells in the gate 'Foxp3 ahigG Subset' in test [1] turned out to be 0.11%; in test [2] it was 0.36%. Substance “anti-DNP (dinitrophenyl) control antibody” displayed a percent of CD4+Foxp3+ cells stained (upper right quadrant) in test [3] of 6.23%.
